Experimental data reported in IntAct's records for PubMed 21408167.

B1: Death-associated protein kinase 2 (Homo sapiens), Q9UIK4-2 (parent)
chain: MFQASMRSPNMEPFKQQKVEDFYDIGEELGSGQFAIVKKCREKSTGLEYAAKFIKKRQSRASRRGVSREEIEREVSILRQVLHHNVITLHDVYENRTDVVLILELVSGGELFDFLAQKESLSEEEATSFIKQILDGVNYLHTKKIAHFDLKPENIMLLDKNIPIPHIKLIDFGLAHEIEDGVEFKNIFGTPEFVAPEIVNYEPLGLEADMWSIGVITYILLSGASPFLGDTKQETLANITAVSYDFDEEFFSQTSELAKDFIRKLLVKETRKRLTIQEALRHPWITSKGEGRAPEQRKTEPTQLKTKHLREYTLKCHSSMPPNNSYVNFERFACVVEDVARVDLGCRALVEAHDTIQDDVEALVSIFNEKEAWYREENESARHDLSQLRYEFRKVESLKKLLREDIQATGCSLGSMARKLDHLQAQFEILRQELSADLQWIQELVGSFQLESGSSEGLGSTFYQDTSESLSELLSRSCTEEFLAGWKL

Variants of: B1
Details: with atf4_human ATF4, P18848
Sequence of atf4_human ATF4, P18848 (P18848 whole entry): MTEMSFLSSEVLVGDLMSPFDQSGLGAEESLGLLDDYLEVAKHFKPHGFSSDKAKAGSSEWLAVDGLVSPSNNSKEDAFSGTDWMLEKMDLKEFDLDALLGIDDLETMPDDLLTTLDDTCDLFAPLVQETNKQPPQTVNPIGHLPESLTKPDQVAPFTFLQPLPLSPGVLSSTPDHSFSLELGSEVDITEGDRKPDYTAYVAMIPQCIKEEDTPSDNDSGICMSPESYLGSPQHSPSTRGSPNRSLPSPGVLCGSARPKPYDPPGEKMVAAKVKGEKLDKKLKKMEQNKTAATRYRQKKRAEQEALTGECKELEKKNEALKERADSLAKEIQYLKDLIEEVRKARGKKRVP

Variant	effect of a mutation on the interaction
L434A;I441A;F448A	decreasing interaction
